Laboratory results as given in publication PMC9352680, “A comprehensive thermodynamic model for RNA binding by the Saccharomyces cerevisiae Pumilio protein PUF4”.

T1: PUF4 RNA-binding domain (Saccharomyces cerevisiae, UniProt P25339 537-888)
T1 sequence: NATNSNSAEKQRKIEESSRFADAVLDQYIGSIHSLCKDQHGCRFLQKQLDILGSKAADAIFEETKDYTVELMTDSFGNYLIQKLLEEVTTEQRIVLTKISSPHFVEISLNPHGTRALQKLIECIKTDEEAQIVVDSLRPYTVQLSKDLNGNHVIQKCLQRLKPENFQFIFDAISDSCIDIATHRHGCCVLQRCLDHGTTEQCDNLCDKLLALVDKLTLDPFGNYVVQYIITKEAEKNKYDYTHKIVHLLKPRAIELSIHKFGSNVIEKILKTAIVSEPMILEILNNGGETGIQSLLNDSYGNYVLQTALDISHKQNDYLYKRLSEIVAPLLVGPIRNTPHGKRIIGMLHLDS


Target: T1, PUF4 RNA-binding domain
Experiment: Mg; RNA-MaP; 20 mM Na-HEPES pH 7.4, 30 mM KOAc, 0.75 mM MgCl2, 0.1% Tween-20, 5% glycerol, 0.1 mg/mL BSA, 2 mM DTT; 25 C; 0.0125-409.6 nM protein
Conditions: tags: N-His6-TEV cleaved; C-SNAP kept, Cy3B-labelled; label: tethered on chip by stalled RNA polymerase

Row | Binder | Kd
1 | UCUCUUUGUAACGUAUCUCUU (ssRNA) [Ic_S1_P4E.1_K4.1_C4.1_H4.1_A4.1_[T5A]_[A6C]_[T7G]_F4.1_T4.1] | 17.3 nM
2 | UCUCUUUGUACAACAUCUCUU (ssRNA) [Ic_S1_P4E.1_K4.1_C4.1_H4.1_A4.1_[T5C]_[T7A]_F4.1_[T8C]_T4.1] | 14.4 nM
3 | UCUCUUUCUAUAUUUCUCUU (ssRNA) [Ib_S1_P3E.1_K3.1_C3.1_H3.1_[G2C]_A3.1_F3.1_[A8T]_T3.1] | > 2300 nM
4 | UCUCUUUGUACAGUGUCUCUU (ssRNA) [Ic_S1_P4E.1_K4.1_C4.1_H4.1_A4.1_[T5C]_[T7G]_F4.1_[A9G]_T4.1] | 16.5 nM
5 | UCUCUUUGUAACGUCUCUCUU (ssRNA) [Ic_S1_P4E.1_K4.1_C4.1_H4.1_A4.1_[T5A]_[A6C]_[T7G]_F4.1_[A9C]_T4.1] | 789 nM
6 | UCUCUUUGUACACGGUCUCUU (ssRNA) [Ic_S1_P4E.1_K4.1_C4.1_H4.1_A4.1_[T5C]_[T7C]_F4.1_[T8G]_[A9G]_T4.1] | 468 nM
7 | UCUCUUUGUACAGCAUCUCUU (ssRNA) [Ic_S1_P4E.1_K4.1_C4.1_H4.1_A4.1_[T5C]_[T7G]_F4.1_[T8C]_T4.1] | 38.5 nM
8 | UCUCUUUGUAACGUUUCUCUU (ssRNA) [Ic_S1_P4E.1_K4.1_C4.1_H4.1_A4.1_[T5A]_[A6C]_[T7G]_F4.1_[A9T]_T4.1] | 314 nM
9 | UCUCUUUGUAAGCCCUCUCUU (ssRNA) [Ic_S1_P4E.1_K4.1_C4.1_H4.1_A4.1_[T5A]_[A6G]_[T7C]_F4.1_[T8C]_[A9C]_T4.1] | 2290 nM
10 | UCUCUUUUUAUAUCUCUCUU (ssRNA) [Ib_S1_P3E.1_K3.1_C3.1_H3.1_[G2T]_A3.1_F3.1_[A8C]_T3.1] | > 2300 nM
11 | UCUCUUUGUACACGAUCUCUU (ssRNA) [Ic_S1_P4E.1_K4.1_C4.1_H4.1_A4.1_[T5C]_[T7C]_F4.1_[T8G]_T4.1] | 60.9 nM
12 | UCUCUUUGUACACCGUCUCUU (ssRNA) [Ic_S1_P4E.1_K4.1_C4.1_H4.1_A4.1_[T5C]_[T7C]_F4.1_[T8C]_[A9G]_T4.1] | 407 nM
13 | UCUCUUUGUACAAACUCUCUU (ssRNA) [Ic_S1_P4E.1_K4.1_C4.1_H4.1_A4.1_[T5C]_[T7A]_F4.1_[T8A]_[A9C]_T4.1] | 142 nM
14 | UCUCUUUGUACAAUUUCUCUU (ssRNA) [Ic_S1_P4E.1_K4.1_C4.1_H4.1_A4.1_[T5C]_[T7A]_F4.1_[A9T]_T4.1] | 11.2 nM
15 | UCUCUUUGUACAACCUCUCUU (ssRNA) [Ic_S1_P4E.1_K4.1_C4.1_H4.1_A4.1_[T5C]_[T7A]_F4.1_[T8C]_[A9C]_T4.1] | 81 nM
16 | UCUCUUUGUACAAAUUCUCUU (ssRNA) [Ic_S1_P4E.1_K4.1_C4.1_H4.1_A4.1_[T5C]_[T7A]_F4.1_[T8A]_[A9T]_T4.1] | 125 nM
17 | UCUCUUUGUAAGCUAUCUCUU (ssRNA) [Ic_S1_P4E.1_K4.1_C4.1_H4.1_A4.1_[T5A]_[A6G]_[T7C]_F4.1_T4.1] | 26.5 nM
18 | UCUCUUUGUACAGUUUCUCUU (ssRNA) [Ic_S1_P4E.1_K4.1_C4.1_H4.1_A4.1_[T5C]_[T7G]_F4.1_[A9T]_T4.1] | 13.3 nM
19 | UCUCUUUGUACAUCCUCUCUU (ssRNA) [Ic_S1_P4E.1_K4.1_C4.1_H4.1_A4.1_[T5C]_F4.1_[T8C]_[A9C]_T4.1] | 29.5 nM
20 | UCUCUUUGUACACUGUCUCUU (ssRNA) [Ic_S1_P4E.1_K4.1_C4.1_H4.1_A4.1_[T5C]_[T7C]_F4.1_[A9G]_T4.1] | 5.05 nM
21 | UCUCUUUGUACAAAAUCUCUU (ssRNA) [Ic_S1_P4E.1_K4.1_C4.1_H4.1_A4.1_[T5C]_[T7A]_F4.1_[T8A]_T4.1] | 34.1 nM
22 | UCUCUUUGUAACGUGUCUCUU (ssRNA) [Ic_S1_P4E.1_K4.1_C4.1_H4.1_A4.1_[T5A]_[A6C]_[T7G]_F4.1_[A9G]_T4.1] | 758 nM
23 | UCUCUUUGUACACAUUCUCUU (ssRNA) [Ic_S1_P4E.1_K4.1_C4.1_H4.1_A4.1_[T5C]_[T7C]_F4.1_[T8A]_[A9T]_T4.1] | 22.6 nM
24 | UCUCUUUGUACAUAGUCUCUU (ssRNA) [Ic_S1_P4E.1_K4.1_C4.1_H4.1_A4.1_[T5C]_F4.1_[T8A]_[A9G]_T4.1] | 5.5 nM
25 | UCUCUUUGUACAAUCUCUCUU (ssRNA) [Ic_S1_P4E.1_K4.1_C4.1_H4.1_A4.1_[T5C]_[T7A]_F4.1_[A9C]_T4.1] | 16.7 nM
26 | UCUCUUUGUACAACUUCUCUU (ssRNA) [Ic_S1_P4E.1_K4.1_C4.1_H4.1_A4.1_[T5C]_[T7A]_F4.1_[T8C]_[A9T]_T4.1] | 33.9 nM

Row | Binder | Kd
27 | UCUCUUUGUACACAAUCUCUU (ssRNA) [Ic_S1_P4E.1_K4.1_C4.1_H4.1_A4.1_[T5C]_[T7C]_F4.1_[T8A]_T4.1] | 17.1 nM
28 | UCUCUUUGUAACGCGUCUCUU (ssRNA) [Ic_S1_P4E.1_K4.1_C4.1_H4.1_A4.1_[T5A]_[A6C]_[T7G]_F4.1_[T8C]_[A9G]_T4.1] | > 2300 nM
29 | UCUCUUUGUACACGCUCUCUU (ssRNA) [Ic_S1_P4E.1_K4.1_C4.1_H4.1_A4.1_[T5C]_[T7C]_F4.1_[T8G]_[A9C]_T4.1] | 145 nM
30 | UCUCUUUGUACAACGUCUCUU (ssRNA) [Ic_S1_P4E.1_K4.1_C4.1_H4.1_A4.1_[T5C]_[T7A]_F4.1_[T8C]_[A9G]_T4.1] | 92.3 nM
31 | UCUCUUUGUACAUGUUCUCUU (ssRNA) [Ic_S1_P4E.1_K4.1_C4.1_H4.1_A4.1_[T5C]_F4.1_[T8G]_[A9T]_T4.1] | 20.9 nM
32 | UCUCUUUGUAAGCUGUCUCUU (ssRNA) [Ic_S1_P4E.1_K4.1_C4.1_H4.1_A4.1_[T5A]_[A6G]_[T7C]_F4.1_[A9G]_T4.1] | 544 nM
33 | UCUCUUUGUACACUCUCUCUU (ssRNA) [Ic_S1_P4E.1_K4.1_C4.1_H4.1_A4.1_[T5C]_[T7C]_F4.1_[A9C]_T4.1] | 8.95 nM
34 | UCUCUUUGUACACCCUCUCUU (ssRNA) [Ic_S1_P4E.1_K4.1_C4.1_H4.1_A4.1_[T5C]_[T7C]_F4.1_[T8C]_[A9C]_T4.1] | 118 nM
35 | UCUCUUUGUACAAUGUCUCUU (ssRNA) [Ic_S1_P4E.1_K4.1_C4.1_H4.1_A4.1_[T5C]_[T7A]_F4.1_[A9G]_T4.1] | 7.97 nM
36 | UCUCUUUGUAACGCCUCUCUU (ssRNA) [Ic_S1_P4E.1_K4.1_C4.1_H4.1_A4.1_[T5A]_[A6C]_[T7G]_F4.1_[T8C]_[A9C]_T4.1] | 2000 nM
37 | UCUCUUUGUACAAGCUCUCUU (ssRNA) [Ic_S1_P4E.1_K4.1_C4.1_H4.1_A4.1_[T5C]_[T7A]_F4.1_[T8G]_[A9C]_T4.1] | 692 nM
38 | UCUCUUUGUACACUUUCUCUU (ssRNA) [Ic_S1_P4E.1_K4.1_C4.1_H4.1_A4.1_[T5C]_[T7C]_F4.1_[A9T]_T4.1] | 7.32 nM
39 | UCUCUUUGUAAGCUCUCUCUU (ssRNA) [Ic_S1_P4E.1_K4.1_C4.1_H4.1_A4.1_[T5A]_[A6G]_[T7C]_F4.1_[A9C]_T4.1] | 1840 nM
40 | UCUCUUUGUACAUGCUCUCUU (ssRNA) [Ic_S1_P4E.1_K4.1_C4.1_H4.1_A4.1_[T5C]_F4.1_[T8G]_[A9C]_T4.1] | 28.6 nM
41 | UCUCUUUGUAACGAUUCUCUU (ssRNA) [Ic_S1_P4E.1_K4.1_C4.1_H4.1_A4.1_[T5A]_[A6C]_[T7G]_F4.1_[T8A]_[A9T]_T4.1] | 884 nM
42 | UCUCUUUAUAUAUGUCUCUU (ssRNA) [Ib_S1_P3E.1_K3.1_C3.1_H3.1_[G2A]_A3.1_F3.1_[A8G]_T3.1] | > 2300 nM
43 | UCUCUUUAUAUAUUUCUCUU (ssRNA) [Ib_S1_P3E.1_K3.1_C3.1_H3.1_[G2A]_A3.1_F3.1_[A8T]_T3.1] | 696 nM
44 | UCUCUUUGUACAUGGUCUCUU (ssRNA) [Ic_S1_P4E.1_K4.1_C4.1_H4.1_A4.1_[T5C]_F4.1_[T8G]_[A9G]_T4.1] | 59.6 nM
45 | UCUCUUUGUACAGUCUCUCUU (ssRNA) [Ic_S1_P4E.1_K4.1_C4.1_H4.1_A4.1_[T5C]_[T7G]_F4.1_[A9C]_T4.1] | 17 nM
46 | UCUCUUUGUAACGCUUCUCUU (ssRNA) [Ic_S1_P4E.1_K4.1_C4.1_H4.1_A4.1_[T5A]_[A6C]_[T7G]_F4.1_[T8C]_[A9T]_T4.1] | 581 nM
47 | UCUCUUUGUAAGCACUCUCUU (ssRNA) [Ic_S1_P4E.1_K4.1_C4.1_H4.1_A4.1_[T5A]_[A6G]_[T7C]_F4.1_[T8A]_[A9C]_T4.1] | 1880 nM
48 | UCUCUUUGUAACCGAUCUCUU (ssRNA) [Ic_S1_P4E.1_K4.1_C4.1_H4.1_A4.1_[T5A]_[A6C]_[T7C]_F4.1_[T8G]_T4.1] | > 2300 nM
49 | UCUCUUUGUACAGCUUCUCUU (ssRNA) [Ic_S1_P4E.1_K4.1_C4.1_H4.1_A4.1_[T5C]_[T7G]_F4.1_[T8C]_[A9T]_T4.1] | 78.3 nM
50 | UCUCUUUGUACAUCUUCUCUU (ssRNA) [Ic_S1_P4E.1_K4.1_C4.1_H4.1_A4.1_[T5C]_F4.1_[T8C]_[A9T]_T4.1] | 21.1 nM
51 | UCUCUUUGUAAGCCAUCUCUU (ssRNA) [Ic_S1_P4E.1_K4.1_C4.1_H4.1_A4.1_[T5A]_[A6G]_[T7C]_F4.1_[T8C]_T4.1] | 515 nM
